15 substances from patent publication US20240132578A1 can be followed below.

The term IC50 denotes the midpoint of a concentration-inhibition curve. Low values mean greater potency, high ones weaker potency.

Assay in all cases: cell-based or functional assay
The target in experiment [1] is HIV-1 Env of isolate 92WR026 (pseudovirus) (HIV-1).
For experiment [2], the target named is HIV-1 Env of isolate MG RM-A-008 (pseudovirus) (HIV-1).
The target of experiment [3] is HIV-1 Env of isolate MG RM-A-014 (pseudovirus) (HIV-1).
The target of experiment [4] is HIV-1 Env of isolate MGRM-AE-003 (pseudovirus) (HIV-1).
For experiment [5], the target named is HIV-1 Env of isolate MGRM-C-014 (subtype C), on pseudovirus (HIV-1).
Experiment [6] concerns the target HIV-1 Env of isolate MGRM-C-015 (subtype C), on pseudovirus (HIV-1).
Experiment [7] has as its target HIV-1 Env of isolate MGRM-D-005 (HIV-1).
Experiment [8] addresses HIV-1 Env of isolate MGRM-G-001 (subtype G) (HIV-1).
The target of experiment [9] is HIV-1 Env of isolate MGRM-G-015 (subtype G) (HIV-1).
Experiment [10] deals with HIV-1 Env of pseudovirus isolate MGRM-Chronic-B-003 (clade B) (HIV-1).
Experiment [11] deals with HIV-1 92RW020 envelope (Env) on pseudovirus (HIV-1).
Experiment [12] addresses HIV-1 93UG077 envelope (Env) on pseudovirus (HIV-1).
Experiment [13] deals with HIV-1 94UG103 envelope (Env) on pseudovirus (HIV-1).
Experiment [14] deals with HIV-1 APV-6 envelope (Env) on pseudovirus (HIV-1).
Experiment [15] has as its target HIV-1 Env of isolate 92RW008 (clade A pseudovirus) (HIV-1).
The target in experiment [16] is HIV-1 Env of isolate 94UG103 (clade A pseudovirus) (HIV-1).
Experiment [17] deals with HIV-1 Env of isolate CAAN.A2 (Acute), clade B (HIV-1).
The target in experiment [18] is HIV-1 Env of isolate JRCSF (Clade B) (HIV-1) (UniProt P20871).
For experiment [19], the target named is HIV-1 Env of isolate MGRM-D-021 (clade D pseudovirus) (HIV-1).
Experiment [20] deals with HIV-1 Env of isolate THR0.18 (Acute), clade B (HIV-1).
For experiment [21], the target named is HIV-1 MGRM-AE-006 Env (pseudovirus) (HIV-1).
The target in experiment [22] is HIV-1 MGRM-AG-001 Env (pseudovirus) (HIV-1).
The target of experiment [23] is HIV-1 MGRM-AG-011 Env (pseudovirus) (HIV-1).
The target of experiment [24] is HIV-1 envelope glycoprotein (Env) of isolate MGRM-C-006 (HIV-1).
Experiment [25] concerns the target HIV-1 envelope glycoprotein (Env) of isolate MGRM-C-009 (HIV-1).
Experiment [26] concerns the target HIV-1 Env of pseudovirus MGRM-F1-015 (HIV-1).
Experiment [27] concerns the target HIV-1 envelope glycoprotein (Env) of isolate MG RM-AG-002 (HIV-1).
The target of experiment [28] is HIV-1 envelope glycoprotein (Env) of isolate MG RM-AG-009 (HIV-1).
The target in experiment [29] is HIV-1 envelope glycoprotein (Env) of isolate MGRM-AE-007 (HIV-1).

Sequence of PGT-143 (4980_N08) (antibody) (VH): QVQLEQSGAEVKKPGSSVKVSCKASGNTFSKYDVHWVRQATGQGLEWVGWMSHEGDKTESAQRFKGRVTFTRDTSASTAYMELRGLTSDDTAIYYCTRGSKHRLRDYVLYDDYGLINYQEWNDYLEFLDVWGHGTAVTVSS
Sequence of PGT-143 (4980_N08) (antibody) (VL): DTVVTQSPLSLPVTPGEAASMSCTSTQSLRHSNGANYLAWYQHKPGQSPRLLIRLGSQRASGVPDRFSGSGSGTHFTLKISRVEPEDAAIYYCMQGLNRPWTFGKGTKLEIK
Sequence of PGT-142 (4995_E20) (antibody) (VH): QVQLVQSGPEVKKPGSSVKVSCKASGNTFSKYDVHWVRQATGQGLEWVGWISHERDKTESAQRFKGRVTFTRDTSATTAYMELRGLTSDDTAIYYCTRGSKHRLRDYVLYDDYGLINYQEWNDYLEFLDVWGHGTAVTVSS
Sequence of PGT-142 (4995_E20) (antibody) (VL): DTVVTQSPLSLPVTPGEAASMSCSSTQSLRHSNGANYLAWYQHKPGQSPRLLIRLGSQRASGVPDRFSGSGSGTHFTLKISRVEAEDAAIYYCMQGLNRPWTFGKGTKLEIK
Sequence of PGT-145 (4995_P16) (antibody) (VH): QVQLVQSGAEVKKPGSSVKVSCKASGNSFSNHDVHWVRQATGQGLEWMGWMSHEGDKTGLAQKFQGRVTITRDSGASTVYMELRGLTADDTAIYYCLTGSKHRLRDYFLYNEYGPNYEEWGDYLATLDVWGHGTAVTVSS
Sequence of PGT-145 (4995_P16) (antibody) (VL): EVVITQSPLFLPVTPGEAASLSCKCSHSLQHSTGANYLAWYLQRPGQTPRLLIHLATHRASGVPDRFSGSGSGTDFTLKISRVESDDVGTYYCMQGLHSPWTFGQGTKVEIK
Sequence of 1443_C16 (PG16) (TCN-116) (antibody) (VH): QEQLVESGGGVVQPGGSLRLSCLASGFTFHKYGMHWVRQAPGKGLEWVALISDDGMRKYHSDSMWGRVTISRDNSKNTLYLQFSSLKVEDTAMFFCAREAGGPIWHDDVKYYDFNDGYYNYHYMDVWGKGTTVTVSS
Sequence of 1443_C16 (PG16) (TCN-116) (antibody) (VL): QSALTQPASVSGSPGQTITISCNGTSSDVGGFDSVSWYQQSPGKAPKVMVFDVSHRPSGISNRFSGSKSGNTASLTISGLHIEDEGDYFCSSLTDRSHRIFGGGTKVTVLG
Sequence of PGT-144 (4970_K22) (antibody) (VH): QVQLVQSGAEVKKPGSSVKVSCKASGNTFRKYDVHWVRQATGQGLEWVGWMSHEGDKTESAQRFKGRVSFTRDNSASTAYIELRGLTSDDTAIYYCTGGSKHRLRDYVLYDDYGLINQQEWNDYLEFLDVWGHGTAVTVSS
Sequence of PGT-144 (4970_K22) (antibody) (VL): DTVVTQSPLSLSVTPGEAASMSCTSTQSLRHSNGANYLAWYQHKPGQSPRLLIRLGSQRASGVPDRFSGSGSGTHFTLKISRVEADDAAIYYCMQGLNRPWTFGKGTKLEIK
Sequence of PGT-141 (4964_G22; 4993_K13) (antibody) (VH): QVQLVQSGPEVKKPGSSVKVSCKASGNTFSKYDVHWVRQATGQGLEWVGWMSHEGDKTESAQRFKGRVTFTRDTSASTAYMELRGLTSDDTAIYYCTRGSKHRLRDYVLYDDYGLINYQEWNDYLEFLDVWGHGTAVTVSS

4995_P16 (PGT-145) (antibody): the IC50 (µg/mL), single-round pseudovirus neutralization in [1] is 1.45 µg/mL; in [2] it was above 50 µg/mL; in [3] it was 1.36 µg/mL; in [4], 0.552 µg/mL. The IC50, single-round pseudovirus neutralization turned out to be 5.82 µg/mL in experiment [5] and 0.12 µg/mL in [6]. The IC50 (µg/mL), pseudovirus neutralization in experiment [7] is 10.4 µg/mL; in experiment [8], 0.028 µg/mL; in experiment [9], 10.5 µg/mL. Also, the IC50, pseudovirus neutralization in experiment [10] amounted to 0.045 µg/mL.

Consider b12 (antibody), for which the neutralization IC50 in experiment [11] was above 50 µg/mL; in experiment [12], 41.1 µg/mL; in [13], 3.54 µg/mL; in experiment [14], above 25 µg/mL. Besides, the IC50 (µg/ml), pseudovirus neutralization is 9.46 µg/mL in experiment [15]; 6.92 µg/mL in experiment [16]; above 50 µg/mL in experiment [17]; 3.62 µg/mL in [20]; above 50 µg/mL in experiment [21]; 11.9 µg/mL in experiment [22]. Moreover, the IC50 (µg/ml), pseudovirus neutralization in experiment [23], in experiment [24] and in experiment [25] was above 50 µg/mL throughout. In experiment [18], the IC90 (neutralization of pseudovirus) amounted to 1.17 µg/mL. In [19], the IC50, pseudovirus neutralization worked out at 5.23 µg/mL.

With 1443_C16 (PG16) (TCN-116) (antibody), the neutralization IC50 was 0.004 µg/mL in experiment [11], above 50 µg/mL in experiment [12], 0.008 µg/mL in experiment [13] and 0.08 µg/mL in experiment [14]. For the same substance, the IC50 (µg/ml), pseudovirus neutralization in experiment [15] came out at 0.002 µg/mL; in [16], 0.04 µg/mL; in [17], 8.83 µg/mL; in experiment [20], 1.34 µg/mL; in experiment [21], 0.03 µg/mL; in experiment [22], 0.03 µg/mL. Further, the IC50 (µg/ml), pseudovirus neutralization in experiment [23] was 0.002 µg/mL; in experiment [24] it was 2.62 µg/mL; in experiment [25], above 50 µg/mL. Also, in experiment [18], the IC90 (neutralization of pseudovirus) was determined as 0.013 µg/mL. Moreover, in [19], the IC50, pseudovirus neutralization is above 50 µg/mL.

For the substance 4980_N08 (PGT-143) (antibody), the IC50 (µg/mL), single-round pseudovirus neutralization in experiment [1] is 5.36 µg/mL; in experiment [2], above 50 µg/mL; in experiment [3], 1.07 µg/mL; in [4], above 50 µg/mL. Besides, the IC50, single-round pseudovirus neutralization was 8.81 µg/mL in experiment [5] and 0.085 µg/mL in experiment [6]. Further, the values for the IC50 (µg/mL), pseudovirus neutralization in [7], in experiment [8] and in experiment [9] were 1.41 µg/mL, 0.423 µg/mL and above 50 µg/mL, respectively. Further, the IC50, pseudovirus neutralization in experiment [10] came out at 0.854 µg/mL.

With 4E10 (antibody), the neutralization IC50 in experiment [11] was determined as 3.38 µg/mL; in [12], 11.2 µg/mL; in experiment [13] it was 9.7 µg/mL; in experiment [14], 0.4 µg/mL. For the same substance, the IC50 (µg/ml), pseudovirus neutralization in [15] was 14.5 µg/mL; in experiment [16], 4.97 µg/mL; in experiment [17], 17.9 µg/mL; in [20], 4.68 µg/mL; in experiment [21], 0.23 µg/mL; in experiment [22], 1.12 µg/mL. Moreover, the IC50 (µg/ml), pseudovirus neutralization in [23] was 1.36 µg/mL; in [24], 4.94 µg/mL; in experiment [25] it was 0.56 µg/mL. In experiment [18], the IC90 (neutralization of pseudovirus) worked out at 44.1 µg/mL. The substance further registered an IC50, pseudovirus neutralization in [19] of 13.3 µg/mL.

With 4970_K22 (PGT-144) (antibody), the IC50 (µg/mL), single-round pseudovirus neutralization in [1] is 32.7 µg/mL; in experiment [2], above 50 µg/mL; in [3] it was above 50 µg/mL; in experiment [4], above 50 µg/mL. For the same substance, the IC50, single-round pseudovirus neutralization in [5] was above 50 µg/mL; in [6], 0.236 µg/mL. The IC50 (µg/mL), pseudovirus neutralization in experiment [7] is 14.8 µg/mL; in [8] it was above 50 µg/mL; in experiment [9], above 50 µg/mL. This substance also showed an IC50, pseudovirus neutralization in experiment [10] of 7.41 µg/mL.

Consider 1495_C14 (PGC14) (antibody), for which the neutralization IC50 was 28.6 µg/mL in experiment [11], above 50 µg/mL in [12], above 50 µg/mL in experiment [13] and 7.41 µg/mL in [14]. The IC50 (µg/ml), pseudovirus neutralization is 37 µg/mL in [15]; above 50 µg/mL in experiment [16]; above 50 µg/mL in experiment [17]; above 50 µg/mL in experiment [20]; above 50 µg/mL in [21]; above 50 µg/mL in [22]. The IC50 (µg/ml), pseudovirus neutralization in experiment [23], in experiment [24] and in experiment [25] was above 50 µg/mL throughout. Further, the IC50, pseudovirus neutralization in experiment [19] is above 50 µg/mL.

On to PGT-141 (4964_G22; 4993_K13) (antibody), for which the IC50, pseudovirus neutralization in experiment [26] is above 50 µg/mL. Moreover, the IC50 is 0.049 µg/mL in [27], above 50 µg/mL in experiment [28] and 33.1 µg/mL in [29].

Turning to VRC01 (antibody), the results for the IC50 (µg/mL), single-round pseudovirus neutralization in experiment [2], in [3] and in experiment [4] were 0.303 µg/mL, 0.135 µg/mL and 0.685 µg/mL, respectively. In addition, the IC50, single-round pseudovirus neutralization was above 50 µg/mL in experiment [5] and 1.57 µg/mL in experiment [6]. For the same substance, the values for the IC50 (µg/mL), pseudovirus neutralization in experiment [7], in [8] and in experiment [9] were above 50 µg/mL, 0.0371 µg/mL and 0.548 µg/mL, respectively. The IC50, pseudovirus neutralization in [26] was determined as 0.387 µg/mL; in experiment [10] it was 0.1 µg/mL. Moreover, the results for the IC50 in experiment [27], in experiment [28] and in experiment [29] were 0.95 µg/mL, above 50 µg/mL and 0.835 µg/mL, respectively.

In experiment [26], PGT-144 (4970_K22) (antibody) showed an IC50, pseudovirus neutralization above 50 µg/mL. Further, the values for the IC50 in experiment [27], in experiment [28] and in experiment [29] were 7.78 µg/mL, above 50 µg/mL and above 50 µg/mL, respectively.

In the case of 4995_E20 (PGT-142) (antibody), the IC50 (µg/mL), single-round pseudovirus neutralization in experiment [1] is 1.78 µg/mL; in [2], above 50 µg/mL; in experiment [3], 0.367 µg/mL; in experiment [4] it was above 50 µg/mL. The values for the IC50, single-round pseudovirus neutralization in [5] and in [6] were 6.02 µg/mL and 0.038 µg/mL, respectively. For the same substance, the IC50 (µg/mL), pseudovirus neutralization in experiment [7] is 1.15 µg/mL; in [8], 0.362 µg/mL; in [9] it was above 50 µg/mL. Besides, the IC50, pseudovirus neutralization in experiment [10] was 0.484 µg/mL.

Consider PGT-142 (4995_E20) (antibody), for which the IC50, pseudovirus neutralization in [26] is above 50 µg/mL. In addition, the IC50 in experiment [27] was 0.044 µg/mL; in experiment [28], above 50 µg/mL; in experiment [29] it was 6.7 µg/mL.

Regarding 4993_K13 (PGT-141) (antibody), the IC50 (µg/mL), single-round pseudovirus neutralization in experiment [1] is 1.78 µg/mL; in experiment [2], above 50 µg/mL; in experiment [3], 0.628 µg/mL; in experiment [4], above 50 µg/mL. Further, the IC50, single-round pseudovirus neutralization worked out at 11.8 µg/mL in [5] and 0.033 µg/mL in experiment [6]. Besides, the IC50 (µg/mL), pseudovirus neutralization in [7] was 5.15 µg/mL; in experiment [8], 0.392 µg/mL; in experiment [9], above 50 µg/mL. In experiment [10], this substance registered an IC50, pseudovirus neutralization of 0.4 µg/mL.

In the case of PGT-143 (4980_N08) (antibody), the IC50, pseudovirus neutralization in experiment [26] was above 50 µg/mL. The IC50 in experiment [27] was 0.076 µg/mL; in [28], above 50 µg/mL; in experiment [29], 13.6 µg/mL.

Turning to PGT-145 (4995_P16) (antibody), in experiment [26], the IC50, pseudovirus neutralization stood at 1.76 µg/mL. Also, the IC50 in experiment [27] was 0.056 µg/mL; in experiment [28], above 50 µg/mL; in experiment [29] it was 0.181 µg/mL.
